Results: patent US20150203577A1 (Chugai, published 2015)

T1: mouse FcγRII extracellular domain with C-terminal His tag (mouse, UniProt P08101 30-210)
T1 construct: Made on the basis of NCBI NP-034317.1; also called mFcγRII; mFcgRII
T1 sequence: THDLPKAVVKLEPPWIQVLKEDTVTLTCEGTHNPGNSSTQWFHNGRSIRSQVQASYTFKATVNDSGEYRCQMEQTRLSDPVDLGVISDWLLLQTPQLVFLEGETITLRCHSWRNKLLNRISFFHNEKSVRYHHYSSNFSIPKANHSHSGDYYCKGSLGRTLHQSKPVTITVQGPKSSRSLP

T2: mouse FcγRIII extracellular domain with C-terminal His tag (mouse, UniProt P08508 31-215)
T2 construct: Made on the basis of NCBI NP-034318.2; also called mFcγRIII; mFcgRIII
T2 chain: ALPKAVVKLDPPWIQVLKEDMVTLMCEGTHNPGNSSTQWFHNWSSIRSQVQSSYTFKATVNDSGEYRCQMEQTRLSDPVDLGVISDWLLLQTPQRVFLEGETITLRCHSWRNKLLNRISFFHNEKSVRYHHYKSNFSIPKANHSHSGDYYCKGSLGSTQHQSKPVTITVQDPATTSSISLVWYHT


Legend:
[1] = target: T1, mouse FcγRII extracellular domain with …; assay: SPR Biacore T200
[2] = target: T2, mouse FcγRIII extracellular domain with …; assay: SPR Biacore T200
[3] = target: T1, mouse FcγRII extracellular domain with …; assay: SPR Biacore T200; KD mFcγRIII / KD mFcγRII

Binder	relative mFcγRII-binding activity (mIgG1 = 1) [1]	relative mFcγRIII-binding activity (mIgG1 = 1) [2]	relative I/A (mFcγRII selectivity) (mIgG1 = 1) [3]	Kd [1]	Kd [2]	I/A (mFcγRII selectivity) [3]
H237-MB423/MRAL-k0 (antibody, mouse IgG1, kappa, copies: 2 + 2) heavy: QVQLQESGPGLVKPSETLSLTCAVSGHSISHDHAWSWVRQPPGEGLEWIGFISYSGITNYNPSLQGRVTISRDNSKNTLYLQMNSLRAEDTAVYYCARSLARTTAMDYWGEGTLVTVSSAKTTPPSVYPLAPGSAAQTNSMVTLGCLVKGYFPEPVTVTWNSGSLSSGVHTFPAVLQSDLYTLSSSVTVPSSTWPSETVTCNVAHPASSTKVDKKIVPRDCGCKPCICTNYEVEDVFIFPPKPKDVLTITLTPKVTCVVVDISKDDPEVQFSWFVDDVEVHTAQTQPREEQFNSTFRSVSELPIMHQDWLNGKEFKCRVNSAAFPAPIEKTISKTKGRPKAPQVYTIPPPKEQMAKDKVSLTCMITDFFPEDITVEWQWNGQPAENYKNTQPIMDTDGSYFVYSKLNVQKSNWEAGNTFTCSVLHEGLHNHHTEKSLSHSPGK light: not shown	143	9.2	15.5	–	–	–
H237-MB424/MRAL-k0 (antibody, mouse IgG1, kappa, copies: 2 + 2) heavy: QVQLQESGPGLVKPSETLSLTCAVSGHSISHDHAWSWVRQPPGEGLEWIGFISYSGITNYNPSLQGRVTISRDNSKNTLYLQMNSLRAEDTAVYYCARSLARTTAMDYWGEGTLVTVSSAKTTPPSVYPLAPGSAAQTNSMVTLGCLVKGYFPEPVTVTWNSGSLSSGVHTFPAVLQSDLYTLSSSVTVPSSTWPSETVTCNVAHPASSTKVDKKIVPRDCGCKPCICDPAEVEDVFIFPPKPKDVLTITLTPKVTCVVVDISKDDPEVQFSWFVDDVEVHTAQTQPREEQFNSTFRSVSELPIMHQDWLNGKEFKCRVNSAAFPAPIEKTISKTKGRPKAPQVYTIPPPKEQMAKDKVSLTCMITDFFPEDITVEWQWNGQPAENYKNTQPIMDTDGSYFVYSKLNVQKSNWEAGNTFTCSVLHEGLHNHHTEKSLSHSPGK light: not shown	104	5.1	20.4	–	–	–
H237-MB426/MRAL-k0 (antibody, copies: 2 + 2) heavy: QVQLQESGPGLVKPSETLSLTCAVSGHSISHDHAWSWVRQPPGEGLEWIGFISYSGITNYNPSLQGRVTISRDNSKNTLYLQMNSLRAEDTAVYYCARSLARTTAMDYWGEGTLVTVSSAKTTPPSVYPLAPGSAAQTNSMVTLGCLVKGYFPEPVTVTWNSGSLSSGVHTFPAVLQSDLYTLSSSVTVPSSTWPSETVTCNVAHPASSTKVDKKIVPRDCGCKPCICPPAEVEDVFIFPPKPKDVLTITLTPKVTCVVVDISKDDPEVQFSWFVDDVEVHTAQTQPREEQFNSTFRSVSELPIMHQDWLNGKEFKCRVNSAAFPAPIEKTISKTKGRPKAPQVYTIPPPKEQMAKDKVSLTCMITDFFPEDITVEWQWNGQPAENYKNTQPIMDTDGSYFVYSKLNVQKSNWEAGNTFTCSVLHEGLHNHHTEKSLSHSPGK light: not shown	112	4.4	25.2	–	–	–
H237-MB427/MRAL-k0 (antibody, mouse IgG1, kappa, copies: 2 + 2) heavy: QVQLQESGPGLVKPSETLSLTCAVSGHSISHDHAWSWVRQPPGEGLEWIGFISYSGITNYNPSLQGRVTISRDNSKNTLYLQMNSLRAEDTAVYYCARSLARTTAMDYWGEGTLVTVSSAKTTPPSVYPLAPGSAAQTNSMVTLGCLVKGYFPEPVTVTWNSGSLSSGVHTFPAVLQSDLYTLSSSVTVPSSTWPSETVTCNVAHPASSTKVDKKIVPRDCGCKPCICQPAEVEDVFIFPPKPKDVLTITLTPKVTCVVVDISKDDPEVQFSWFVDDVEVHTAQTQPREEQFNSTFRSVSELPIMHQDWLNGKEFKCRVNSAAFPAPIEKTISKTKGRPKAPQVYTIPPPKEQMAKDKVSLTCMITDFFPEDITVEWQWNGQPAENYKNTQPIMDTDGSYFVYSKLNVQKSNWEAGNTFTCSVLHEGLHNHHTEKSLSHSPGK light: not shown	217	7	31.1	0.966 nM	40.3 nM	41.7

Second part, the binder after the results:

relative mFcγRII-binding activity (mIgG1 = 1) [1]	relative mFcγRIII-binding activity (mIgG1 = 1) [2]	relative I/A (mFcγRII selectivity) (mIgG1 = 1) [3]	Kd [1]	Kd [2]	I/A (mFcγRII selectivity) [3]	Binder
257	15.5	16.7	0.818 nM	18.3 nM	22.3	H237-MB434/MRAL-k0 (antibody, mouse IgG1, kappa, copies: 2 + 2) heavy: QVQLQESGPGLVKPSETLSLTCAVSGHSISHDHAWSWVRQPPGEGLEWIGFISYSGITNYNPSLQGRVTISRDNSKNTLYLQMNSLRAEDTAVYYCARSLARTTAMDYWGEGTLVTVSSAKTTPPSVYPLAPGSAAQTNSMVTLGCLVKGYFPEPVTVTWNSGSLSSGVHTFPAVLQSDLYTLSSSVTVPSSTWPSETVTCNVAHPASSTKVDKKIVPRDCGCKPCICDTYEVEDVFIFPPKPKDVLTITLTPKVTCVVVDISKDDPEVQFSWFVDDVEVHTAQTQPREEQFNSTFRSVSELPIMHQDWLNGKEFKCRVNSAAFPAPIEKTISKTKGRPKAPQVYTIPPPKEQMAKDKVSLTCMITDFFPEDITVEWQWNGQPAENYKNTQPIMDTDGSYFVYSKLNVQKSNWEAGNTFTCSVLHEGLHNHHTEKSLSHSPGK light: not shown
303	11.6	26.2	0.694 nM	24.4 nM	35.2	H237-MB433/MRAL-k0 (antibody, mouse IgG1, kappa, copies: 2 + 2) heavy: QVQLQESGPGLVKPSETLSLTCAVSGHSISHDHAWSWVRQPPGEGLEWIGFISYSGITNYNPSLQGRVTISRDNSKNTLYLQMNSLRAEDTAVYYCARSLARTTAMDYWGEGTLVTVSSAKTTPPSVYPLAPGSAAQTNSMVTLGCLVKGYFPEPVTVTWNSGSLSSGVHTFPAVLQSDLYTLSSSVTVPSSTWPSETVTCNVAHPASSTKVDKKIVPRDCGCKPCICTPNEVEDVFIFPPKPKDVLTITLTPKVTCVVVDISKDDPEVQFSWFVDDVEVHTAQTQPREEQFNSTFRSVSELPIMHQDWLNGKEFKCRVNSAAFPAPIEKTISKTKGRPKAPQVYTIPPPKEQMAKDKVSLTCMITDFFPEDITVEWQWNGQPAENYKNTQPIMDTDGSYFVYSKLNVQKSNWEAGNTFTCSVLHEGLHNHHTEKSLSHSPGK light: not shown
113	4.2	26.8	–	–	–	H237-MB431/MRAL-k0 (antibody, mouse IgG1, kappa, copies: 2 + 2) heavy: QVQLQESGPGLVKPSETLSLTCAVSGHSISHDHAWSWVRQPPGEGLEWIGFISYSGITNYNPSLQGRVTISRDNSKNTLYLQMNSLRAEDTAVYYCARSLARTTAMDYWGEGTLVTVSSAKTTPPSVYPLAPGSAAQTNSMVTLGCLVKGYFPEPVTVTWNSGSLSSGVHTFPAVLQSDLYTLSSSVTVPSSTWPSETVTCNVAHPASSTKVDKKIVPRDCGCKPCICPPNEVEDVFIFPPKPKDVLTITLTPKVTCVVVDISKDDPEVQFSWFVDDVEVHTAQTQPREEQFNSTFRSVSELPIMHQDWLNGKEFKCRVNSAAFPAPIEKTISKTKGRPKAPQVYTIPPPKEQMAKDKVSLTCMITDFFPEDITVEWQWNGQPAENYKNTQPIMDTDGSYFVYSKLNVQKSNWEAGNTFTCSVLHEGLHNHHTEKSLSHSPGK light: not shown
215	8.8	24.4	0.977 nM	32 nM	32.7	H237-MB428/MRAL-k0 (antibody, mouse IgG1, kappa, copies: 2 + 2) heavy: QVQLQESGPGLVKPSETLSLTCAVSGHSISHDHAWSWVRQPPGEGLEWIGFISYSGITNYNPSLQGRVTISRDNSKNTLYLQMNSLRAEDTAVYYCARSLARTTAMDYWGEGTLVTVSSAKTTPPSVYPLAPGSAAQTNSMVTLGCLVKGYFPEPVTVTWNSGSLSSGVHTFPAVLQSDLYTLSSSVTVPSSTWPSETVTCNVAHPASSTKVDKKIVPRDCGCKPCICTPAEVEDVFIFPPKPKDVLTITLTPKVTCVVVDISKDDPEVQFSWFVDDVEVHTAQTQPREEQFNSTFRSVSELPIMHQDWLNGKEFKCRVNSAAFPAPIEKTISKTKGRPKAPQVYTIPPPKEQMAKDKVSLTCMITDFFPEDITVEWQWNGQPAENYKNTQPIMDTDGSYFVYSKLNVQKSNWEAGNTFTCSVLHEGLHNHHTEKSLSHSPGK light: not shown
207	6.3	33	1.02 nM	45 nM	44.3	H237-MB430/MRAL-k0 (antibody, mouse IgG1, kappa, copies: 2 + 2) heavy: QVQLQESGPGLVKPSETLSLTCAVSGHSISHDHAWSWVRQPPGEGLEWIGFISYSGITNYNPSLQGRVTISRDNSKNTLYLQMNSLRAEDTAVYYCARSLARTTAMDYWGEGTLVTVSSAKTTPPSVYPLAPGSAAQTNSMVTLGCLVKGYFPEPVTVTWNSGSLSSGVHTFPAVLQSDLYTLSSSVTVPSSTWPSETVTCNVAHPASSTKVDKKIVPRDCGCKPCICIPNEVEDVFIFPPKPKDVLTITLTPKVTCVVVDISKDDPEVQFSWFVDDVEVHTAQTQPREEQFNSTFRSVSELPIMHQDWLNGKEFKCRVNSAAFPAPIEKTISKTKGRPKAPQVYTIPPPKEQMAKDKVSLTCMITDFFPEDITVEWQWNGQPAENYKNTQPIMDTDGSYFVYSKLNVQKSNWEAGNTFTCSVLHEGLHNHHTEKSLSHSPGK light: not shown
137	6.8	20.3	–	–	–	H237-MB429/MRAL-k0 (antibody, mouse IgG1, kappa, copies: 2 + 2) heavy: QVQLQESGPGLVKPSETLSLTCAVSGHSISHDHAWSWVRQPPGEGLEWIGFISYSGITNYNPSLQGRVTISRDNSKNTLYLQMNSLRAEDTAVYYCARSLARTTAMDYWGEGTLVTVSSAKTTPPSVYPLAPGSAAQTNSMVTLGCLVKGYFPEPVTVTWNSGSLSSGVHTFPAVLQSDLYTLSSSVTVPSSTWPSETVTCNVAHPASSTKVDKKIVPRDCGCKPCICDPNEVEDVFIFPPKPKDVLTITLTPKVTCVVVDISKDDPEVQFSWFVDDVEVHTAQTQPREEQFNSTFRSVSELPIMHQDWLNGKEFKCRVNSAAFPAPIEKTISKTKGRPKAPQVYTIPPPKEQMAKDKVSLTCMITDFFPEDITVEWQWNGQPAENYKNTQPIMDTDGSYFVYSKLNVQKSNWEAGNTFTCSVLHEGLHNHHTEKSLSHSPGK light: not shown
